From patent publication US8309523 (VIB VZW, dated 2012) come the findings set out here.

The assay concerns the target T1, MALT1-C464A (bio-tagged) (human, UniProt Q9UDY8 1-824).
T1 construct: also called C464A mutant; C464 mutant
T1 sequence (looked up): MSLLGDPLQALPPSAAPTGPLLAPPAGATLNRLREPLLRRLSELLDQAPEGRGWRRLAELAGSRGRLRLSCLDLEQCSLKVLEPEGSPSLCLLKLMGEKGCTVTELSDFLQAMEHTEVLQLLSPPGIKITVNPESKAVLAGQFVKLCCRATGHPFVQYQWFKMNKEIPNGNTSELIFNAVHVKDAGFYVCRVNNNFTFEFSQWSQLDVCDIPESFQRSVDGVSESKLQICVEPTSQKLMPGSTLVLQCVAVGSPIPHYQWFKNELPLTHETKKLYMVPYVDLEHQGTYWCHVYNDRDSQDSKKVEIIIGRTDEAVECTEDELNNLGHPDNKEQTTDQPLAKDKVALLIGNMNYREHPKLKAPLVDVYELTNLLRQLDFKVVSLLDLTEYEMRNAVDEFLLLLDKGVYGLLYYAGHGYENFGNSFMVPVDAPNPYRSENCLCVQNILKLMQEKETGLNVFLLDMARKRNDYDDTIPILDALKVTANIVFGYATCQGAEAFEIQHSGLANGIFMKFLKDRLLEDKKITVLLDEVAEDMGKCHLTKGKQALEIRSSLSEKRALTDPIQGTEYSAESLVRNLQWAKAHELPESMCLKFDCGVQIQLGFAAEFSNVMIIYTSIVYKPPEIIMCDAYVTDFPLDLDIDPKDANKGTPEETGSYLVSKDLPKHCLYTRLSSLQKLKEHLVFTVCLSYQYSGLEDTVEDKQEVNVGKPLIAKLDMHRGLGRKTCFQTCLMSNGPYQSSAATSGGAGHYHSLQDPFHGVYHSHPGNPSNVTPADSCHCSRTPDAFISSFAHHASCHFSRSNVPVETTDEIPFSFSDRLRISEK
In words: co-IP (bio-IP, immunoblot).

B1: BCL10 (other, UniProt O95999 1-233, looked up)
chain: MEPTAPSLTEEDLTEVKKDALENLRVYLCEKIIAERHFDHLRAKKILSREDTEEISCRTSSRKRAGKLLDYLQENPKGLDTLVESIRREKTQNFLIQKITDEVLKLRNIKLEHLKGLKCSSCEPFPDGATNNLSRSNSDESNFSEKLRASTVMYHPEGESSTTPFFSTNSSLNLPVLEVGRTENTIFSSTTLPRPGDPGAPPLPPDLQLEEEGTCANSSEMFLPLRSRTVSRQ
notes: Co-precipitated from lysates of human cell lines
With B1, the binding result was “binds”.
